In patent US20200317768A1 (published 2020):
Changes are numbered by the printed parent chain. Names and notes keep the numbering of the source.

T1: cynomolgus monkey FcγRIIa2 extracellular domain, His-tagged (cynomolgus monkey)
T1 construct: also called cyno FcγRIIa2; cynoFcgRIIa2
T1 chain: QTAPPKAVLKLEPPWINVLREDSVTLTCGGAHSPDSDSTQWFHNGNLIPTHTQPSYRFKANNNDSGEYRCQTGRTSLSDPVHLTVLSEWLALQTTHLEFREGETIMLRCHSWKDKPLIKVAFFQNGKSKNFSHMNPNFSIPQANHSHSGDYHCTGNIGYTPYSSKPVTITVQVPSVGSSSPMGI

T2: cynomolgus monkey FcγRIIIaS extracellular domain, His-tagged (cynomolgus monkey, UniProt Q8SPW2 21-206 at identity 1.00))
T2 construct: also called cyno FcγRIIIaS; cynoFcγRIIIaS
T2 chain: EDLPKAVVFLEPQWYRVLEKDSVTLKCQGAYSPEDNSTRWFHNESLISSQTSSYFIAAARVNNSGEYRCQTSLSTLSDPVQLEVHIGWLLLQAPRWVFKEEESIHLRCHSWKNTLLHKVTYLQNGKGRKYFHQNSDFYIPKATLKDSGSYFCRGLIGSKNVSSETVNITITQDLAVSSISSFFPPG

T3: human FcγRIIaH extracellular domain, His-tagged (human, UniProt P12318 34-217)
T3 construct: also called human FcγRIIa (type H); FcgRIIaH
T3 sequence: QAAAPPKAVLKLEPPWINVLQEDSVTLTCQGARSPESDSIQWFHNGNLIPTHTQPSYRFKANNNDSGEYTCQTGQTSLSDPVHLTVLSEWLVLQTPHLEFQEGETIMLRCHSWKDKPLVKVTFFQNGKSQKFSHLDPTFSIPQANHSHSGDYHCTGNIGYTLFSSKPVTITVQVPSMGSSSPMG

T4: human FcγRIIb extracellular domain, His-tagged (human, UniProt P31994 43-217)
T4 construct: also called FcgRIIb (human)
T4 sequence: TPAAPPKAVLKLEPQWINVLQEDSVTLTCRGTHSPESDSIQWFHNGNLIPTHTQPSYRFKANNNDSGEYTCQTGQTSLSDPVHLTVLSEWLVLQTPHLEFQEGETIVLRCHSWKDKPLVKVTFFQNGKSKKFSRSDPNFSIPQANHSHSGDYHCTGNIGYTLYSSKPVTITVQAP

T5: cynomolgus monkey FcγRIIa3 extracellular domain, His-tagged (cynomolgus monkey)
T5 construct: also called cyno FcγRIIa3; cynoFcgRIIa3
T5 chain: T1 chain with K127I, N130K, H133P, Q142R

T6: cynomolgus monkey FcγRIIa1 extracellular domain, His-tagged (cynomolgus monkey)
T6 construct: also called cyno FcγRIIa1; cynoFcgRIIa1
T6 chain: T1 chain with T95P, A121T, K127I, S128A, N130K, N135D, Q142R

T7: human FcγRIIaR extracellular domain, His-tagged (human, UniProt P12318 34-217)
T7 construct: also called human FcγRIIa (type R); FcgRIIaR
T7 chain: T3 sequence with H134R

B1: M103205H795-MY048/M103202L889-SK1 (P271D) (antibody, human IgG1, kappa)
heavy: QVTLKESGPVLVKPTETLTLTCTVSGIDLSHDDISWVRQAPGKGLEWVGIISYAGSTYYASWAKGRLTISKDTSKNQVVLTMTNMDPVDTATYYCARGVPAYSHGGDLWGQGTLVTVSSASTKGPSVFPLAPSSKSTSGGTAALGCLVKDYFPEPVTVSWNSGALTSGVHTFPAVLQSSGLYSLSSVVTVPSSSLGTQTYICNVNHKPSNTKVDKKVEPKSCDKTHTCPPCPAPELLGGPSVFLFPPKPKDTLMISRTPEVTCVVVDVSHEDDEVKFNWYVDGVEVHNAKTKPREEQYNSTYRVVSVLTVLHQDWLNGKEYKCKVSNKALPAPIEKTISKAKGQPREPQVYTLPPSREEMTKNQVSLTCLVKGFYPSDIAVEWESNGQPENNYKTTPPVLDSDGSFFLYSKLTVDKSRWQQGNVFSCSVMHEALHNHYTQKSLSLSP
light: DIVMTQSPATLSLSPGERATLSCTSSQSVYHANWLSWFQQKPGQPPKLLIYWASTLAYGVPSRFSGSGSGTDFTLTISSLQPEDAATYYCAGGYGGGRYAFGQGTKVEIKRTVAAPSVFIFPPSDEQLKSGTASVVCLLNNFYPREAKVQWKVDNALQSGNSQESVTEQDSKDSTYSLSSTLTLSKADYEKHKVYACEVTHQGLSSPVTKSFNRGEC
notes: Here the P271D molecule is meant; Put into M103205H795-SG1
B2: M103205H795-MY065/M103202L889-SK1 (antibody, human IgG1, kappa)
heavy: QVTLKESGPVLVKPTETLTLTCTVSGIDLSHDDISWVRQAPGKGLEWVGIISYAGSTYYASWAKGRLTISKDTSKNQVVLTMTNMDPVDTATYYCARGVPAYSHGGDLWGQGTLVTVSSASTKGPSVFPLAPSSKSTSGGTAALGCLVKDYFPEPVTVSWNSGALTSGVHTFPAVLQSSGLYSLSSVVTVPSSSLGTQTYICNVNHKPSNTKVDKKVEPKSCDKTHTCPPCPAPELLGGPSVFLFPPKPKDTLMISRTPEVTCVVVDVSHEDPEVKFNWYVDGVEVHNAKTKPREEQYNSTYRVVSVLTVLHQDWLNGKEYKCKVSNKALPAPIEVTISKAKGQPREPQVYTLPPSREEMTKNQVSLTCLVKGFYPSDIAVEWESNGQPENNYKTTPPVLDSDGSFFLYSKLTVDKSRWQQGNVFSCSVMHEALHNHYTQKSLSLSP
light: B1 light
notes: Substitution put into M103205H795-SG1
B3: M103205H795-MY071/M103202L889-SK1 (antibody, human IgG1, kappa)
heavy: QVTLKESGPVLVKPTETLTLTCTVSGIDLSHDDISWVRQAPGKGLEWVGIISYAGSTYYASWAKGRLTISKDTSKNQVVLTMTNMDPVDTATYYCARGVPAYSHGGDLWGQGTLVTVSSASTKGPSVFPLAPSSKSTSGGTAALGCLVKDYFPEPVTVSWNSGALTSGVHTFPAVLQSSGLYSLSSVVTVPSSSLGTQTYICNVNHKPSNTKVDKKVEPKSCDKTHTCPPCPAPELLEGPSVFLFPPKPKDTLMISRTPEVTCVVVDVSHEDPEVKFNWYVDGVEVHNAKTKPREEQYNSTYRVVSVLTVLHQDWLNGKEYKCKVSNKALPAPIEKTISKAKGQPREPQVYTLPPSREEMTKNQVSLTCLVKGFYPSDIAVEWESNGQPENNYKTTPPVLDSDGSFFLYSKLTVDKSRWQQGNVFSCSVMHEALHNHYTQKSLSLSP
light: B1 light
notes: as for B2
B4: M103205H795-MY068/M103202L889-SK1 (antibody, human IgG1, kappa)
heavy: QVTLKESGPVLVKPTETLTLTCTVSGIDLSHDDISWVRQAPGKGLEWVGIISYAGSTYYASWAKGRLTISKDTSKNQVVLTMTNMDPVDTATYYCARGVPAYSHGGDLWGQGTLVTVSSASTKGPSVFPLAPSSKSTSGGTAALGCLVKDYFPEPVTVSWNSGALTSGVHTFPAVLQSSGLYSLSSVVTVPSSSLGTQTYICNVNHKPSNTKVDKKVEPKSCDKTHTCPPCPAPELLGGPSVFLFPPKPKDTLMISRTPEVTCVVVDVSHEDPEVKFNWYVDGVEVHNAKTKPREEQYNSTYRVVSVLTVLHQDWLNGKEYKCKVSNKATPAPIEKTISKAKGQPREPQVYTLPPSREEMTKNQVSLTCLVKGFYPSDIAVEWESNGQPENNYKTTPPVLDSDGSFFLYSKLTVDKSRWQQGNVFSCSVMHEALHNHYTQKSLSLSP
light: B1 light
notes: as for B2
B5: M103205H795-MY064/M103202L889-SK1 (antibody, human IgG1, kappa)
heavy: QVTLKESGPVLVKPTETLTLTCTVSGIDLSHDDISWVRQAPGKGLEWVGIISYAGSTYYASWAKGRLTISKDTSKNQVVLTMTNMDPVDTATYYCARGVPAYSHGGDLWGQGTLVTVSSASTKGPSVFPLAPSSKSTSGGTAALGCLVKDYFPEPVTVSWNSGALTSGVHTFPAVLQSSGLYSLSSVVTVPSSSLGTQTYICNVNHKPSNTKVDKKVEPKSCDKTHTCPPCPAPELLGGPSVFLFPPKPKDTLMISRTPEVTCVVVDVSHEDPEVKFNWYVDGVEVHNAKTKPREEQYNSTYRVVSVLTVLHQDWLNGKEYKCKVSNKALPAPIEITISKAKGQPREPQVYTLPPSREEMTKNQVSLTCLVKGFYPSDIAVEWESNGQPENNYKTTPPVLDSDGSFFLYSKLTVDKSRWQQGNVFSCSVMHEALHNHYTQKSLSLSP
light: B1 light
notes: as for B2
B6: M103205H795-MY070/M103202L889-SK1 (antibody, human IgG1, kappa)
heavy: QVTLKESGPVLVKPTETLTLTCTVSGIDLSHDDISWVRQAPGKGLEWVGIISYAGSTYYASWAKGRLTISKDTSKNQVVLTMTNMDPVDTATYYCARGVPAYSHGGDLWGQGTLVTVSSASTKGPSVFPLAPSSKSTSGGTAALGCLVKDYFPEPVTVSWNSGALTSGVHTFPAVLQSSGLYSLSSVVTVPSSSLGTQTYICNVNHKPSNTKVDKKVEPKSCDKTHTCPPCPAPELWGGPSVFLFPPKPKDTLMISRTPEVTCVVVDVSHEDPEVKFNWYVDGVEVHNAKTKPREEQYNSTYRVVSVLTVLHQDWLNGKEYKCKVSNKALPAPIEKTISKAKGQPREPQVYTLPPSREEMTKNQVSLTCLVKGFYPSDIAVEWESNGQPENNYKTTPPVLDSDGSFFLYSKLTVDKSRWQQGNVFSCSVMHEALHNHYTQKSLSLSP
light: B1 light
notes: as for B2
B7: M103205H795-MY063/M103202L889-SK1 (antibody, human IgG1, kappa)
heavy: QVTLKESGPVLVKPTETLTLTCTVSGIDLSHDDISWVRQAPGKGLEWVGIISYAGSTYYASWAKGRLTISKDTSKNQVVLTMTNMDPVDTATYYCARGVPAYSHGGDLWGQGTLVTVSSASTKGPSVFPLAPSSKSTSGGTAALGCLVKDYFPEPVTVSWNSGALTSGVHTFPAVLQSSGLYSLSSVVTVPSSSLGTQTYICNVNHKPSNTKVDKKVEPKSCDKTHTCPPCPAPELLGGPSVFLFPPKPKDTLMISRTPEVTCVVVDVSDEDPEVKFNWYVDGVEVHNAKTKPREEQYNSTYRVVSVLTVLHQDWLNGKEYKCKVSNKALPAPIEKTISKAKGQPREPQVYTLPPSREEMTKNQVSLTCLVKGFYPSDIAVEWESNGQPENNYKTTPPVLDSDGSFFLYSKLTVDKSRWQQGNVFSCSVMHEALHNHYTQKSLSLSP
light: B1 light
notes: as for B2
B8: M103205H795-MY072/M103202L889-SK1 (antibody, human IgG1, kappa)
heavy: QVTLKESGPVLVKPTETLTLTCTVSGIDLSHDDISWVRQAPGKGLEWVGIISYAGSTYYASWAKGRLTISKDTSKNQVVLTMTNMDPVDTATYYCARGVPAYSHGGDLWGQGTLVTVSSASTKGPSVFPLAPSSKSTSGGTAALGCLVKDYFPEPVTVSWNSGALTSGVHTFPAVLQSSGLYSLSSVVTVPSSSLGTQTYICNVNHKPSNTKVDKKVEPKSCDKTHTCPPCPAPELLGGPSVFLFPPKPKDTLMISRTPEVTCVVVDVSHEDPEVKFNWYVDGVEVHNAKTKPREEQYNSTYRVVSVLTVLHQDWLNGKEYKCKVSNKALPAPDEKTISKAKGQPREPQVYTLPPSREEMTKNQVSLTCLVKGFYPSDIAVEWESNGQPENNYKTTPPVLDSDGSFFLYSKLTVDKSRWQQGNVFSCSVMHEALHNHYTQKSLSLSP
light: B1 light
notes: as for B2
B9: M103205H795-MY196/M103202L889-SK1 (antibody, human IgG1, kappa)
heavy: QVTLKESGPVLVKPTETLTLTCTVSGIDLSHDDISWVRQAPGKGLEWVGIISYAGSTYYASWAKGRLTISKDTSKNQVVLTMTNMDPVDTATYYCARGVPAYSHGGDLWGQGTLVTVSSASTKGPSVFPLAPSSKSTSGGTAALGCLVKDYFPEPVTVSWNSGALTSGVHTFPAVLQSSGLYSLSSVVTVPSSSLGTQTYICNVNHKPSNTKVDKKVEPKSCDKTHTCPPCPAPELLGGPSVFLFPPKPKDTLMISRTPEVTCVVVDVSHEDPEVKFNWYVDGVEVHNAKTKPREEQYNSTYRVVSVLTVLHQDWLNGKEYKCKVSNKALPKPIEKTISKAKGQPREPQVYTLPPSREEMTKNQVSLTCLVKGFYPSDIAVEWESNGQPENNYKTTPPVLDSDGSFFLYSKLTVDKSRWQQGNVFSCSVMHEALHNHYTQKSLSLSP
light: B1 light
notes: as for B2
B10: M103205H795-MY073/M103202L889-SK1 (antibody, human IgG1, kappa)
heavy: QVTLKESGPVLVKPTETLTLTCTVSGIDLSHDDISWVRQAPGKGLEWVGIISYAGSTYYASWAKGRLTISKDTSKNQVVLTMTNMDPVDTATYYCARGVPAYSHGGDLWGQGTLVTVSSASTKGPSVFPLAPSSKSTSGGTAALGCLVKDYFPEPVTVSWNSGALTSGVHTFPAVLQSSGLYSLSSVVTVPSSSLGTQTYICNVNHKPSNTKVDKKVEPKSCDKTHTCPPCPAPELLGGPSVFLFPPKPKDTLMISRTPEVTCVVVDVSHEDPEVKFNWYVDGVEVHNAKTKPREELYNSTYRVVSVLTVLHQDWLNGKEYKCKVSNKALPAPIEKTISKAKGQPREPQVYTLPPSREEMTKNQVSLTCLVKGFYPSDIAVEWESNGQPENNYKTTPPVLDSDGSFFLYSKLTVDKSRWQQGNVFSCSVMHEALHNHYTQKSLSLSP
light: B1 light
notes: as for B2
B11: M103205H795-MY124/M103202L889-SK1 (antibody, human IgG1, kappa)
heavy: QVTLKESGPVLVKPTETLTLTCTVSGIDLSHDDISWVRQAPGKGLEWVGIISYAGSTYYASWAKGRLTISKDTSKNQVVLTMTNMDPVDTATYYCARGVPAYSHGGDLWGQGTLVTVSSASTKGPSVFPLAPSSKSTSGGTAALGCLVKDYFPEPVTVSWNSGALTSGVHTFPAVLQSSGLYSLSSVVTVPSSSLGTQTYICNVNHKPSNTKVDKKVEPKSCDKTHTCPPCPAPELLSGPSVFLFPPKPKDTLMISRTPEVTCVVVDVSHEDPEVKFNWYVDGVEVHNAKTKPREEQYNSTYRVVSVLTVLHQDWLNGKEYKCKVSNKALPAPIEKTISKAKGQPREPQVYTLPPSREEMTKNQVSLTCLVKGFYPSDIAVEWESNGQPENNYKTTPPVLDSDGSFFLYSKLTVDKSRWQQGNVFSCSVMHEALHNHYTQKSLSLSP
light: B1 light
notes: as for B2
B12: M103205H795-MY069/M103202L889-SK1 (antibody, human IgG1, kappa)
heavy: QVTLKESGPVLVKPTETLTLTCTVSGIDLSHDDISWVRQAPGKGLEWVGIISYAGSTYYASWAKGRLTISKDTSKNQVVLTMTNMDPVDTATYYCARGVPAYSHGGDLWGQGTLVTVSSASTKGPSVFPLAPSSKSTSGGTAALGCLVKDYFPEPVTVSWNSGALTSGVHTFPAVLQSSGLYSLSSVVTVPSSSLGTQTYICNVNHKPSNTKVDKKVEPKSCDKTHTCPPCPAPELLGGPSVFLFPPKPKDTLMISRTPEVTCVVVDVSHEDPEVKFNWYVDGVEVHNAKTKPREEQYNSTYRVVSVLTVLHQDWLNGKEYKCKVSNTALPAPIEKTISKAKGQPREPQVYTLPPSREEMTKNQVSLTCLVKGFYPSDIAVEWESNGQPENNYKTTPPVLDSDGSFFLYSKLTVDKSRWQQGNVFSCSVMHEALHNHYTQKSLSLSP
light: B1 light
notes: as for B2

Tests used:
Assay in all cases: SPR, antibody captured, FcgR analyte
[1] = molecular target: T1, cynomolgus monkey FcγRIIa2 …
[2] = molecular target: T2, cynomolgus monkey FcγRIIIaS …
[3] = molecular target: T3, human FcγRIIaH extracellular domain, …
[4] = molecular target: T4, human FcγRIIb extracellular domain, …
[5] = molecular target: T5, cynomolgus monkey FcγRIIa3 …
[6] = molecular target: T6, cynomolgus monkey FcγRIIa1 …
[7] = molecular target: T7, human FcγRIIaR extracellular domain, …
[8] = molecular target: T8, human FcγRIIIaV extracellular domain, His-tagged (human, UniProt P08637 17-208)
T8 construct: also called FcgRIIIaV
T8 sequence (P08637 17-208 F176V): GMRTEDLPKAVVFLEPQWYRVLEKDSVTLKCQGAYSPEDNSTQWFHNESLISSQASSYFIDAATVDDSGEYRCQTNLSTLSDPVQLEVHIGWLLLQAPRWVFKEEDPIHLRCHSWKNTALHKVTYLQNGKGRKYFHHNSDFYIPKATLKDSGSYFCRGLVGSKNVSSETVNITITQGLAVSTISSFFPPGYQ

Binder	Kd [1] [nM]	Kd [2] [nM]	Kd [3] [nM]	Kd [4] [nM]	Kd [5] [nM]	Kd [6] [nM]	Kd [7] [nM]	Kd [8] [nM]
B1	11000	370	1800	3000	4400	6600	1200	610
B2	2800	110	520	1900	4200	2300	510	230
B3	3700	280	400	8100	9200	5000	450	510
B4	2700	580	370	2100	5700	2100	520	1400
B5	2800	120	500	2400	59000	2400	680	220
B6	2500	490	500	2600	4700	2300	740	700
B7	1500	67	270	660	2000	1400	210	160
B8	1200	53	250	1500	2600	1000	480	120
B9	3000	600	480	6200	23000	2500	1300	2200
B10	1300	170	240	2000	5100	1200	500	340
B11	3100	1300	140	9200	12000	2600	520	5200
B12	1600	86	440	1600	6500	1600	390	240
